These results are taken from publication PMC10996255.

The assay addresses Recombinant human HER2 (human) (UniProt P04626). The assay is described as follows: ELISA; recombinant HER2 (50 ng/well) coated in PBS pH 7.4; scFv or conjugate 250 to 0.005 nM, 4-fold dilutions in 5% skim milk in PBST, room temperature; detected by rabbit anti-His-tag antibody and HRP-linked anti-rabbit IgG. Background: ELISA stands for enzyme-linked immunosorbent assay.

In general, EC50 refers to the concentration that produces a half-maximal response. Consider “4D5scFv-G178-HSA (from UniProt P02768 25-609)”, for which the EC50 stood at 1.47 nM.
